Source: publication PMC3728706

Target: fluorescently labeled peptide derived from the C-terminus of β-catenin
Assay: fluorescence polarisation

Chain of Erbin PDZ domain (Q80TH2 1311-1400): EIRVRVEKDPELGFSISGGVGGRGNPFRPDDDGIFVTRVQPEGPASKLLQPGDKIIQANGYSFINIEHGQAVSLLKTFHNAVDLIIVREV

Kd [µM] | Molecule
6 | Erbin PDZ domain (from UniProt Q80TH2 1311-1400) (domain or fragment)
369 | Grip1 PDZ domain (domain or fragment)
25 | LIN7 PDZ domain (from UniProt O88951 93-175) (domain or fragment)
1 | Magi-1 PDZ domain 6 (domain or fragment)
0.6 | Magi-2 PDZ domain (domain or fragment)
1 | Magi-3 PDZ domain (domain or fragment)
20 | NHERF-1 PDZ domain (domain or fragment)
207 | PDZk3 PDZ domain (domain or fragment)
103 | PDZk7 PDZ domain (domain or fragment)
31 | PSD95 PDZ domain (domain or fragment)
79 | PTP-BL PDZ domain (domain or fragment)
100 | Pard3 PDZ domain (domain or fragment)
342 | SAP97 PDZ domain (domain or fragment)
13 | Scrib PDZ domain (domain or fragment)
0.3 | Tip1 PDZ domain (domain or fragment) RVEIHKLRQGENLILGFSIGGGIDQDPSQNPFSEDKTDKGIYVTRVSEGGPAEIAGLQIGDKIMQVNGWDMTMVTHDQARKRLTKRSEEVVRLLVTRQ
1 | Tiam2 PDZ domain (domain or fragment) DVQLTKTGDMTDFGFAVTVQVDEHQHLNRIFISDVLPDSLAYGGGLRKGNEITSLNGEPVSDLDIQQMEALFSEKSVGLTLVARPVT
9 | Shank3 PDZ domain (domain or fragment) VAILQKRDHEGFGFVLRGAKAETPIEEFTPTPAFPALQYLESVDVEGVAWRAGLRTGDFLIEVNGVNVVKVGHKQVVGLIRQGGNRLVMKVVSVT
276 | Synip PDZ domain (domain or fragment) AFRVITVTKETGLGLKILGGINRNEGPLVYIHEVIPGGDCYKDGRLKPGDQLVSINKESMIGVSFEEAKSIITRAKLRSESPWEIAF
333 | PDZ11 PDZ domain (domain or fragment) IVTLKKPPGAQLGFNIRGGKASQLGIFISKVIPDSDAHRAGLQEGDQVLAVNDVDFQDIEHSKAVEILKTAREISMRVRFFPY
